Data published in paper PMC3050729, “Novel computational analysis of protein binding array data identifies direct targets of Nkx2.2 in the pancreas”.

T1: Nkx2.2 (in vitro translated) (UniProt P42586 1-273)
T1 sequence: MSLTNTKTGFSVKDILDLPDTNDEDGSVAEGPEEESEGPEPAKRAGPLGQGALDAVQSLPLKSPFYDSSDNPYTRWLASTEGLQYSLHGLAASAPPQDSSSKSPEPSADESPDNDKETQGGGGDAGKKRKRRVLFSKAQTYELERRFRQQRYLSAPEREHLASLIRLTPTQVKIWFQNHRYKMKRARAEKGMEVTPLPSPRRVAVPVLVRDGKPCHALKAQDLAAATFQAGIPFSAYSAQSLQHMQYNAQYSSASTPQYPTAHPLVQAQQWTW


Target: T1, Nkx2.2 (in vitro translated)
Test: EMSA; EMSA as in ref 20; buffer, salt, pH and temperature not given
Conditions: protein: ivt, label: 32P-dCTP Klenow fill-in, filled in with Klenow

| Binder | binding result (5' overhangs) | binding result (5' overhang 4 nt) |
| --- | --- | --- |
| Nkx6.2 +1669 (+669 in probe list) (dsDNA) DNA 1: CCGAATCCCGCGCGGGCCACTTACCGGAGCCGGCCAGTCGCGGGTCCCTC DNA 2: CTGGAGGGACCCGCGACTGGCCGGCTCCGGTAAGTGGCCCGCGCGGGATT | no binding | – |
| Gcg -1080 (dsDNA) DNA 1: AGACCATTGAAACAACTGGAGGAGTACTCTGACTGAACTTAATTCTTCAT DNA 2: AGAATGAAGAATTAAGTTCAGTCAGAGTACTCCTCCAGTTGTTTCAATGG | no binding | – |
| Ins2 -477 (Ins -471 in probe list) (dsDNA) DNA 1: AAGCAGAACTCAGGCAGCAAGGTACTTAATGGTCCCTCCTTCTCCATC DNA 2: AGAGATGGAGAAGGAGGGACCATTAAGTACCTTGCTGCCTGAGTTCT | binds | – |
| Ins2 -144 (dsDNA) DNA 1: TGCTTTCTGCAGACCTAGCACCAGGCAAGTGTTTGGAAACTGCAGCT DNA 2: CTGAAGCTGCAGTTTCCAAACACTTGCCTGGTGCTAGGTCTGCAGAA | no binding | – |
| Nkx2.2 AAGT consensus (dsDNA) DNA 1: TCGACGCGATTTTTCAAGTGGTTTTCAGTAGC DNA 2: AGCTGCTACTGAAAACCACTTGAAAAATCGCG | – | binds |
